In PMC2767407:

Substrate: CN(C)C(=N)NCCC[C@H](N)C(=O)O
Test: enzyme kinetics of refolded recombinant enzyme
Assay type: biochemical, Homo sapiens
Conditions: authors' own initial, unpublished results; assay conditions not told

B1: recombinant human DDAH-2 (Homo sapiens) (protein)
chain: MGTPGEGLGRCSHALIRGVPESLASGEGAGAGLPALDLAKAQREHGVLGGKLRQRLGLQLLELPPEESLPLGPLLGDTAVIQGDTALITRPWSPARRPEVDGVRKALQDLGLRIVEIGDENATLDGTDVLFTGREFFVGLSKWTNHRGAEIVADTFRDFAVSTVPVSGPSHLRGLCGMGGPRTVVAGSSDAAQKAVRAMAVLTDHPYASLTLPDDAAADCLFLRPGLPGVPPFLLHRGGGDLPNSQEALQKLSDVTLVPVSCSELEKAGAGLSSLCLVLSTRPHS
Question: For B1, which Km is on record?
Answer: 16 µM
